Measurements from paper PMC11791078, “RECQ4-MUS81 interaction contributes to telomere maintenance with implications to Rothmund-Thomson syndrome” (Nature Communications, 2025).

T1: GST-MUS81-EME1 complex (UniProt Q96NY9 1-551; Q96AY2 1-570)
T1 construct: MUS81 subunit of the complex encoded by pGEX-6P-1-MUS81-HisEME1; EME1 subunit of the complex encoded by pGEX-6P-1-MUS81-HisEME1; Plasmid was a gift from Dr. Stephen West and Dr. Curtis Harris; the construct is not described further; source: E. coli Rossetta (DE3) pLysS, purified (Glutathione Sepharose, Heparin, MonoS)
T1 sequence (looked up) 1: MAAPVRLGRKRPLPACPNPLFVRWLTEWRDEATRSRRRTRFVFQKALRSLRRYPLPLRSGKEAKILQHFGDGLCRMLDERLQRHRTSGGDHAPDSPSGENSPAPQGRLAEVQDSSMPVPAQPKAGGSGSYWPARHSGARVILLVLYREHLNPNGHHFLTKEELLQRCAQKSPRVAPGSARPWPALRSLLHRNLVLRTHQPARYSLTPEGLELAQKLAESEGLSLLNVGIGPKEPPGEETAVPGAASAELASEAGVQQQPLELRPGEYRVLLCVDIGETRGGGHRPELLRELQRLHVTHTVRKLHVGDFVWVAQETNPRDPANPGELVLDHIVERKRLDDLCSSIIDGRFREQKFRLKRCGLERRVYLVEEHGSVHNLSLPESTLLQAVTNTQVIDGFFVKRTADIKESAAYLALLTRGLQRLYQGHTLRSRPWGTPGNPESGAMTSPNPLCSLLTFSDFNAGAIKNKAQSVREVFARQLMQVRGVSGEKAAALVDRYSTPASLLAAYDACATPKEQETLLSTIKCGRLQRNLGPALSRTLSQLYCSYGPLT
T1 sequence (looked up) 2: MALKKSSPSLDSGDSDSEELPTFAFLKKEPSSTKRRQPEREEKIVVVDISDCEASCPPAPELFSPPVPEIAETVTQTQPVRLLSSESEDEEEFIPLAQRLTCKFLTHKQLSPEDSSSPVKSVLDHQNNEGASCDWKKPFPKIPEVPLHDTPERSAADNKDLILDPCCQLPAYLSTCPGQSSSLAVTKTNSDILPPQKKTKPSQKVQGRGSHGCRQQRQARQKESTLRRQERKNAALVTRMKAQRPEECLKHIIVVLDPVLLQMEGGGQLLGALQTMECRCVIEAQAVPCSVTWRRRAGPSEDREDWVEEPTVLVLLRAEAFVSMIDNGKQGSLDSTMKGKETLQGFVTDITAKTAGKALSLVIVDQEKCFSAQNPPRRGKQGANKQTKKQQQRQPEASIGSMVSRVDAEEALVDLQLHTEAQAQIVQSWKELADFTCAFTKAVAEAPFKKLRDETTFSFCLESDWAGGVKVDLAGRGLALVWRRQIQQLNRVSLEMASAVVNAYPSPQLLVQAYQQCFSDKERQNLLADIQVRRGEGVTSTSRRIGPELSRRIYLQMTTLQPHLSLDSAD


Key:
GST-MUS81-EME1 complex [1] = target: T1, GST-MUS81-EME1 complex; assay: pull-down; purified GST-MUS81-EME1, GST-MUS81 or GST-MUS81 fragments (5 µg) incubated with MBP-tagged RECQ4 fragments (5 µg) and Glutathione Sepharose 4 Fast Flow beads in 1X K buffer with 150 mM KCl, 0.01% NP40, 1 mM DTT, 30 min, 4 °C; flow-through and bound fractions on SDS-PAGE, Coomassie blue; settings: both partners purified
GST-MUS81-EME1 complex [2] = target: GST-MUS81-EME1 complex (UniProt Q96NY9)

| Binder | binding result (GST-MUS81-EME1 complex [1]) | stimulation of MUS81-EME1 (0.5 nM) cleavage of 3'-flap DNA (6 nM), 20 min at 37 °C; RECQ4 5, 25 and 50 nM (GST-MUS81-EME1 complex [2]) [fold] |
| --- | --- | --- |
| MBP-RECQ4 (1-400) (domain or fragment, UniProt O94761 1-400, looked up, RECQ4 residues 1-400; cloned into pMAL-c2x from pET32a-RECQ4-9XHis; also called fragment (1-400); RECQ4 truncation (1-400 aa); source: E. coli BL21(DE3) pLysS, purified (His-Select nickel, amylose, MonoS)) MERLRDVRERLQAWERAFRRQRGRRPSQDDVEAAPEETRALYREYRTLKRTTGQAGGGLRSSESLPAAAEEAPEPRCWGPHLNRAATKSPQSTPGRSRQGSVPDYGQRLKANLKGTLQAGPALGRRPWPLGRASSKASTPKPPGTGPVPSFAEKVSDEPPQLPEPQPRPGRLQHLQASLSQRLGSLDPGWLQRCHSEVPDFLGAPKACRPDLGSEESQLLIPGESAVLGPGAGSQGPEASAFQEVSIRVGSPQPSSSGGEKRRWNEEPWESPAQVQQESSQAGPPSEGAGAVAVEEDPPGEPVQAQPPQPCSSPSNPRYHGLSPSSQARAGKAEGTAPLHIFPRLARHDRGNYVRLNMKQKHYVRGRALRSRLLRKQAWKQKWRKKGECFGGGGATVTTK | binds |  |
| MBP-RECQ4 (1-492) (domain or fragment, UniProt O94761 1-492, looked up, cloned into pMAL-c2x from pET32a-RECQ4-9XHis; source: E. coli BL21(DE3) pLysS, purified (His-Select nickel, amylose)) MERLRDVRERLQAWERAFRRQRGRRPSQDDVEAAPEETRALYREYRTLKRTTGQAGGGLRSSESLPAAAEEAPEPRCWGPHLNRAATKSPQSTPGRSRQGSVPDYGQRLKANLKGTLQAGPALGRRPWPLGRASSKASTPKPPGTGPVPSFAEKVSDEPPQLPEPQPRPGRLQHLQASLSQRLGSLDPGWLQRCHSEVPDFLGAPKACRPDLGSEESQLLIPGESAVLGPGAGSQGPEASAFQEVSIRVGSPQPSSSGGEKRRWNEEPWESPAQVQQESSQAGPPSEGAGAVAVEEDPPGEPVQAQPPQPCSSPSNPRYHGLSPSSQARAGKAEGTAPLHIFPRLARHDRGNYVRLNMKQKHYVRGRALRSRLLRKQAWKQKWRKKGECFGGGGATVTTKESCFLNEQFDHWAAQCPRPASEEDTDAVGPEPLVPSPQPVPEVPSLDPTVLPLYSLGPSGQLAETPAEVFQALEQLGHQAFRPGQERAVMRI | binds |  |
| RECQ4 (WT), full-length (natural protein) MERLRDVRERLQAWERAFRRQRGRRPSQDDVEAAPEETRALYREYRTLKRTTGQAGGGLRSSESLPAAAEEAPEPRCWGPHLNRAATKSPQSTPGRSRQGSVPDYGQRLKANLKGTLQAGPALGRRPWPLGRASSKASTPKPPGTGPVPSFAEKVSDEPPQLPEPQPRPGRLQHLQASLSQRLGSLDPGWLQRCHSEVPDFLGAPKACRPDLGSEESQLLIPGESAVLGPGAGSQGPEASAFQEVSIRVGSPQPSSSGGEKRRWNEEPWESPAQVQQESSQAGPPSEGAGAVAVEEDPPGEPVQAQPPQPCSSPSNPRYHGLSPSSQARAGKAEGTAPLHIFPRLARHDRGNYVRLNMKQKHYVRGRALRSRLLRKQAWKQKWRKKGECFGGGGATVTTKESCFLNEQFDHWAAQCPRPASEEDTDAVGPEPLVPSPQPVPEVPSLDPTVLPLYSLGPSGQLAETPAEVFQALEQLGHQAFRPGQERAVMRILSGISTLLVLPTGAGKSLCYQLPALLYSRRSPCLTLVVSPLLSLMDDQVSGLPPCLKAACIHSGMTRKQRESVLQKIRAAQVHVLMLTPEALVGAGGLPPAAQLPPVAFACIDEAHCLSQWSHNFRPCYLRVCKVLRERMGVHCFLGLTATATRRTASDVAQHLAVAEEPDLHGPAPVPTNLHLSVSMDRDTDQALLTLLQGKRFQNLDSIIIYCNRREDTERIAALLRTCLHAAWVPGSGGRAPKTTAEAYHAGMCSRERRRVQRAFMQGQLRVVVATVAFGMGLDRPDVRAVLHLGLPPSFESYVQAVGRAGRDGQPAHCHLFLQPQGEDLRELRRHVHADSTDFLAVKRLVQRVFPACTCTCTRPPSEQEGAVGGERPVPKYPPQEAEQLSHQAAPGPRRVCMGHERALPIQLTVQALDMPEEAIETLLCYLELHPHHWLELLATTYTHCRLNCPGGPAQLQALAHRCPPLAVCLAQQLPEDPGQGSSSVEFDMVKLVDSMGWELASVRRALCQLQWDHEPRTGVRRGTGVLVEFSELAFHLRSPGDLTAEEKDQICDFLYGRVQARERQALARLRRTFQAFHSVAFPSCGPCLEQQDEERSTRLKDLLGRYFEEEEGQEPGGMEDAQGPEPGQARLQDWEDQVRCDIRQFLSLRPEEKFSSRAVARIFHGIGSPCYPAQVYGQDRRFWRKYLHLSFHALVGLATEELLQVAR |  | > 10 |
